Laboratory results reported in publication PMC3970736, “Peptide transporter isoforms are discriminated by the fluorophore‐conjugated dipeptides β‐Ala‐ and d‐Ala‐Lys‐N‐7‐amino‐4‐methylcoumarin‐3‐acetic acid” (Physiological Reports, 2013).

Key:
Test in all cases: two-electrode voltage clamp, Xenopus oocytes, Michaelis-Menten fit of transport current
[1] = substrate: NCC(=O)N[C@@H](CCC(N)=O)C(=O)O; assay type: cell-based, Danio rerio; details: pH 6.5, -160 mV, apparent transport affinity, GQ Km values 'in part published previously'
Text: (§1) two-electrode voltage clamp, Xenopus oocytes, Michaelis-Menten fit of transport current on zfPEPT2

[2] = substrate: Cc1c(CC(=O)NCCCC[C@H](NC(=O)CCN)C(=O)O)c(=O)oc2cc(N)ccc12; assay type: cell-based, Danio rerio; details: pH 6.5, -160 mV, 0.05-2 mmol/L range, apparent transport affinity
Text: as §1

[3] = substrate: NCC(=O)N[C@@H](CCC(N)=O)C(=O)O; assay type: cell-based, Caenorhabditis elegans; details: pH 6.5, -60 mV, apparent transport affinity, GQ Km values 'in part published previously'
Text: (§2) two-electrode voltage clamp, Xenopus oocytes, Michaelis-Menten fit of transport current on cePEPT1

[4] = substrate: Cc1c(CC(=O)NCCCC[C@H](NC(=O)CCN)C(=O)O)c(=O)oc2cc(N)ccc12; assay type: cell-based, Caenorhabditis elegans; details: pH 6.5, -60 mV, 0.5-4 mmol/L range, apparent transport affinity
Text: as §2

[5] = substrate: NCC(=O)N[C@@H](CCC(N)=O)C(=O)O; assay type: cell-based, Oryctolagus cuniculus; details: pH 6.5, -160 mV, apparent transport affinity, GQ Km values 'in part published previously'
Text: (§3) two-electrode voltage clamp, Xenopus oocytes, Michaelis-Menten fit of transport current on rPEPT2

[6] = substrate: Cc1c(CC(=O)NCCCC[C@H](NC(=O)CCN)C(=O)O)c(=O)oc2cc(N)ccc12; assay type: cell-based, Oryctolagus cuniculus; details: pH 6.5, -160 mV, 0.05-2 mmol/L range, apparent transport affinity
Text: as §3

B1: zfPEPT2 (Danio rerio) (protein)
chain: MGKMKDKDVDAEKYEKAQRSPKLCGTNYPVSIAFIVVNEFCERFSYYGMKAVLTLYFMNYLHWDKNLSTAIYHAFSGLCYFTPLLGALIADSWLGKFKTIIYLSIVYVIGHVVKSVGAIPDVGDSTVHIALSMVGLGLIALGTGGIKPCVAAFGGDQFDEDNIDERRKFFSIFYMSINAGSVLSTIITPILRGDVQCFGGDCYALAFGVPAALMVIALVVFISGSGLYKKSPPEGNVLVRVCKCIGFAISNRWTNSKKSPKRSHWLDWAEEKYSKRLIQEIKMVCRVLVLYIPLPMFWALFDQQGSRWTLQATRMNMDFGGGFIIKPDQMQMLNALLILVFIPIFDMGIYPLVGLCRIKLTPLKKMATGMILAALAFCAATAVEVYVIKTVVEPPPAKESLVQVYNLMDSDVTVQFPAHNVFSEPLKPYEEPSGYSSLPLTGESQLQNVVVSHNGMNYQCRLTFTERMAYSLLLHPTAQHNGSVCNLVKDHITKSETGAAYIRFINTHTENINVTVGTEEVHASANYGISRNISVPRGEYNKAVCVTDTKEYEINLGLLDFGAFYTVILSEAGNNLAVKKMEDIQANNIHIGWQIPQYVFLTAGEVMFSITGLEFSYSQAPASMKSVLQAGWLMTVAFGNVIVLIVAEGAGMEQWVEFLLFAALLVAVSIIFSIMAYFYTYVDPDQLDKLFKEDGDGGKVESSKKDELSLGDMPKQTKM
notes: full-length cRNA expressed in Xenopus laevis oocytes
- Km [1]: 0.079 ± 0.012 mmol/L
- Km [2]: 0.296 ± 0.026 mmol/L

B2: cePEPT1 (Caenorhabditis elegans) (protein)
chain: MGYSESRSESVSSKGKTSYGHELETVPLPEKKIYTTWPDMIRHWPKTTLCIVSNEFCERFSYYGMRTVLTFYLLNVLKFTDSQSTIFFNGFTVLCYTTPLLGSIVADGYIGKFWTIFSVSILYAIGQVVLALASTKNFQSSVHPWMDLSGLLIIAFGTGGIKPCVSAFGGDQFELGQERMLSLFFSMFYFSINAGSMISTFISPIFRSQPCLGQDSCYPMAFGIPAILMIVATLVFMGGSFWYKKNPPKDNVFGEVSRLMFRAVGNKMKSGSTPKEHWLLHYLTTHDCALDAKCLELQAEKRNKNLCQKKKFIDDVRSLLRVLVMFLPVPMFWALYDQQGSVWLIQAIQMDCRLSDTLLLLPDQMQTLNAVLILLFIPLFQVIIYPVAAKCVRLTPLRKMVTGGLLASLAFLITGFVQLQVNTTLPTLPEEGEASISFWNQFETDCTITVMSGIHKRVLPHDKYLHEDKKNKSGIYNLFTTKSPAKGNGDWTLTYDLSYDGACGDTSKLEKTVKVTAKSKKIIYVGVGSFGYYQNTANTDKPTDGTGEFSMGIVTVFNSSYGGNFAMCRQNTSDFDVNHPCNPRHPADFYFWETDYNSHTDDRDQNATITGSLSSQPAVTYKQKSVKPGYWQLYYLLNTPKDVDRQTYNKTATLVAPTNYGFHRVKQGGVFIYALTGTYENPKIHELQIVQSNSVSILWQIPQIVVITAAEILFSITGYEFAYSQSAPSMKALVQALWLLTTAAGDSIIVVITILNLFENMAVEFFVYAAAMFVVIAIFALLSIFYYTYNYYTTDEEDGEIGVDDEEEIEDHNPRYSIDNKGFHPDEKDTFDMHF
notes: as for B1
- Km [3]: 7.45 ± 0.61 mmol/L
- Km [4]: 4.64 ± 1.67 mmol/L

B3: rPEPT2 (Oryctolagus cuniculus) (protein)
chain: MNPFQQNESKETLFSPVSTEETPPRLSSPAKKTPPKICGSNYPLSIAFIVVNEFCERFSYYGMKAVLTLYFLYFLHWNEDTSTSVYHAFSSLCYFTPILGAAIADSWLGKFKTIIYLSLVNVLGHVIKSLSAFPILGGKVVHTVLSLVGLCLIALGTGGIKPCVAAFGGDQFEEKHAEERTRYFSGFYLAINAGSLISTFITPMLRGDVQCFGEDCYALAFGVPGLLMVIALVVFAMGSKMYKKPPPEGNIVAQVVKCIWFAISNRFKNRSEDIPKRQHWLDWAAEKYPKQLIMDVKTLTRVLFLYIPLPMFWALLDQQGSRWTLQATKMNGNLGFFVLQPDQMQVLNPLLVLIFIPLFDLVIYRLISKCGINFTSLRKMAVGMVLACLAFAAAATVEIKINEMAPPQPGSQEILLQVLNLADDEVKLTVLGNNNNSLLADSIKSFQKTPHYSKIHLNTKSQDFYFHLKYHNLSIYTEHSVEERNWYSLIIREDGKSISSIMVKDMENETTYGMTAIRFINTLQENVNISLGTDISLNVGENYGVSAYRTVQRGEYPAVHCKTEDKDFSLNLGLLDFGASYLFVITNSTKQGLQAWKMEDIPANKVSIAWQLPQYALVTAGEVMFSVTGLEFSYSQAPSSMKSVLQAAWLLTVAIGNIIVLVVAQFSGLVQWAEFVLFSCLLLVVCLIFSIMGYYYIPIKSEDIQGPEDKQIPHMQGNMINLETKKTKL
notes: full-length (729 residues) cRNA expressed in Xenopus laevis oocytes
- Km [5]: 0.150 ± 0.033 mmol/L
- Km [6]: 0.290 ± 0.027 mmol/L
